Measured values reported in patent US20080125498.

Assays:
[1] = system: N-terminal myc-tagged NR1-1a
[2] = molecular target: NMDA receptor NR1 subunit in adult rat brain membranes (UniProt P35439)
[3] = molecular target: T1, protease-activated receptor 1 (PAR1), mouse, endogenous in hippocampal slices and cultured astrocytes (UniProt P30558)
T1 sequence: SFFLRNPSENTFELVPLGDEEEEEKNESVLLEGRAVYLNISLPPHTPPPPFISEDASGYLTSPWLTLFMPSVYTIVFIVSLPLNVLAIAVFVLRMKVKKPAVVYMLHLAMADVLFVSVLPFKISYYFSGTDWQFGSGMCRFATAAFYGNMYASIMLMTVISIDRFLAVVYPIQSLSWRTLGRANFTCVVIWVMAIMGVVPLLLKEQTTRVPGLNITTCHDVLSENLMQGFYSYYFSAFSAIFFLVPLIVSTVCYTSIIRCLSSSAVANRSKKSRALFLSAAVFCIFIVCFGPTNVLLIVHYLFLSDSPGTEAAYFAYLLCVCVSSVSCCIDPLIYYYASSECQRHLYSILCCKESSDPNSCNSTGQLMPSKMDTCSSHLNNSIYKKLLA

[4] = system: recombinant NR1-1b subunit transiently expressed in HEK 293 cells
[5] = molecular target: endogenous plasminogen in mouse brain slices (UniProt P20918)
Sequence of endogenous plasminogen in mouse brain slices (P20918 20-812): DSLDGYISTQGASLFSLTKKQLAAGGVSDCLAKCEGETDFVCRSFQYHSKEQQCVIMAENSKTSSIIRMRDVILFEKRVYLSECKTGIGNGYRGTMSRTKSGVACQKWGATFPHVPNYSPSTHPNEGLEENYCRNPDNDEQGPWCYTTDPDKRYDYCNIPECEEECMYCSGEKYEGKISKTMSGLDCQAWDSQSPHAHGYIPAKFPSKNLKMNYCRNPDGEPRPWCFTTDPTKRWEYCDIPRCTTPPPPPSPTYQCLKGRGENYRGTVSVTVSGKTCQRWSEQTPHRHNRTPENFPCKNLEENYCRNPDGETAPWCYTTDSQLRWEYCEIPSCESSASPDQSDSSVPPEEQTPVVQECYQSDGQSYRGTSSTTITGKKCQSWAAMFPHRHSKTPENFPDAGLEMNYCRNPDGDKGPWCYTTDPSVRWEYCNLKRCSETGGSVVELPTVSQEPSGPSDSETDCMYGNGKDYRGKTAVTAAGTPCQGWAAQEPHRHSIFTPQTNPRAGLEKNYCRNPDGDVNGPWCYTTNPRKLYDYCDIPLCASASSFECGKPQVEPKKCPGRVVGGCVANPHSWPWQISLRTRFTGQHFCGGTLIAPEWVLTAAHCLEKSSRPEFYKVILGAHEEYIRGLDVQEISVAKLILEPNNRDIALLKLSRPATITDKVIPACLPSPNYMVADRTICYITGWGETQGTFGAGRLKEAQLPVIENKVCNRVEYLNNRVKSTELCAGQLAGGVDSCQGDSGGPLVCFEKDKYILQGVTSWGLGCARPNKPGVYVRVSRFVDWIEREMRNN

Sequence of tissue plasminogen activator (P00750 36-562): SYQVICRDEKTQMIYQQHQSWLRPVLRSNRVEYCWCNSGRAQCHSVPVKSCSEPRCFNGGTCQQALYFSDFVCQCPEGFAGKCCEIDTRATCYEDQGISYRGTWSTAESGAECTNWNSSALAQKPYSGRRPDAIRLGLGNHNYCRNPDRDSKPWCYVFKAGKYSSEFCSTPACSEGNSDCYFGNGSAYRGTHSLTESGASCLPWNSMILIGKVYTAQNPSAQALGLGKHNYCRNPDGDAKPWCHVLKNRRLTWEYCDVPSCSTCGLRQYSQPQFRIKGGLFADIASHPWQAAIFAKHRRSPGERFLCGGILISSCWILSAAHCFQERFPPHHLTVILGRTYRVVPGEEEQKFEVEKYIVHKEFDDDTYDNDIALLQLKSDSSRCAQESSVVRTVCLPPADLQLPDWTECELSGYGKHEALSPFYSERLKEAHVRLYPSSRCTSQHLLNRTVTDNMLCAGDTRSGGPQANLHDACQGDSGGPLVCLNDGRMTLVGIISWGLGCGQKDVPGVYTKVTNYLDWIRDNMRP

Substance	proteolysis of myc-tagged NR1-1a (immunoblot) [1]	NR1 cleavage product in CA1 region after 15 minutes of 3 U/ml thrombin on slices [2]	maximal percent of NR1 cleaved, striatal membranes [2]	percent of NR1 cleaved, all brain regions except striatum, 1-3 micromolar thrombin [2]	percent of NR1 cleaved, cerebellar, cortical and brainstem membranes, 300 nM thrombin [2]	percent of NR1 cleaved, hippocampal membranes, 30 nM thrombin [2]	percent of NR1 cleaved, striatal membranes, 30 nM thrombin [2]	proteolysis of NR1 (immunoblot) [2]	PI hydrolysis in hippocampal slices [3]	proteolysis of recombinant NR1-1b (immunoblot) [4]	PI hydrolysis after tPA application to hippocampal slices [3]	PI hydrolysis in hippocampal slices [5]
alpha-thrombin	Thrombin induced a similar shift in molecular weight for N-terminal myc-tagged NR1 as observed for the recombinant and native receptors detected with mAb54.1	no NR1 cleavage product was observed in immunoblots of membranes obtained from the CA1 region microdissected immediately following the experiment	the maximal observed cleavage of 52% suggests a thrombin resistant population of NR1 subunits exists	1-3 micromolar thrombin cleaved 100% or subunits in all brain regions except striatum	cerebellar (n=7), cortical (n=5), and brainstem (n=5) NR1 subunits were insensitive to cleavage by 300 nM thrombin (30 U/ml)	30 nM thrombin (3 U/ml) cleaved 20% of the NR1 subunit in hippocampal membranes (n=7)	50% of NR1 in striatal membranes (n=10)	Incubation of brain membranes with thrombin for 1 hour at 37 °C resulted in the appearance of a new band that was 12 kD (n=10) lower in molecular weight than the parent band	Both thrombin and plasmin increased PI hydrolysis in wild type hippocampus, but not in the hippocampus of PAR1-/- mice	10-1000 U/ml of thrombin cleaved both homomeric NR1-1b receptors (n=9/10 experiments) and heteromeric NR1-1b/NR2B receptors (n=6/6 experiments)		
plasmin									Both thrombin and plasmin increased PI hydrolysis in wild type hippocampus, but not in the hippocampus of PAR1-/- mice		Application of tPA to wild type hippocampal slices significantly increased PI hydrolysis compared with application to PAR1-/-hippocampal slices	
tissue plasminogen activator												application of tPA did not increase PI hydrolysis in plasminogen-deficient mice
